Numbering of substitutions follows the chain as printed.
T1: human integrin β8 swap construct RKMALF (SEQ ID NO:134) (human, UniProt P26012 43-769)
T1 sequence: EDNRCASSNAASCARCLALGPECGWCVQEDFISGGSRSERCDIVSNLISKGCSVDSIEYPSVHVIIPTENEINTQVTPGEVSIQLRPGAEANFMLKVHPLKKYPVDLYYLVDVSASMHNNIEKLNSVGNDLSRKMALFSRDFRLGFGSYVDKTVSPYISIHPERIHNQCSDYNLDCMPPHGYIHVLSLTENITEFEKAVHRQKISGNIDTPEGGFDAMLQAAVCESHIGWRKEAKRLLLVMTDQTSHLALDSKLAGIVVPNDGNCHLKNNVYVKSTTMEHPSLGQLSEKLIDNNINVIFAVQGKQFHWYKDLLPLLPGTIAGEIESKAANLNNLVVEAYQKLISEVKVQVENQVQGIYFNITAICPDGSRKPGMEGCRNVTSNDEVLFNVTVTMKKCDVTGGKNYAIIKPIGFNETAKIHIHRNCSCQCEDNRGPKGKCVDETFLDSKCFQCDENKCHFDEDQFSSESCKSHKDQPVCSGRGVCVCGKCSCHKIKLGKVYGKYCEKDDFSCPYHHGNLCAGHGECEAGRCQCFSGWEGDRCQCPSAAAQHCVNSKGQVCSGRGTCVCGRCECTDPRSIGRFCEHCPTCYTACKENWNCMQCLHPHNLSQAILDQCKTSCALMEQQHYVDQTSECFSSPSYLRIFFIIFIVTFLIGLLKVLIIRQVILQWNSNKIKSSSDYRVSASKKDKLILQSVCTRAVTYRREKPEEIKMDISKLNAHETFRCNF

T2: human integrin β8 swap construct KKMAFY (SEQ ID NO:131) (human, UniProt P26012 43-769)
T2 sequence: T1 sequence with R133K, L137F, F138Y

T3: human integrin β8 swap construct KKMAFF (SEQ ID NO:133) (human, UniProt P26012 43-769)
T3 sequence: T1 sequence with R133K, L137F

T4: human integrin β8 swap construct RKMAFY (SEQ ID NO:130) (human, UniProt P26012 43-769)
T4 sequence: T1 sequence with L137F, F138Y

B1: 37E1B5 antibody (antibody, V domains shown)
VH: EVQLVESGGGLVQPGGSLNLSCAVSGFVFSRYWMSWVRQAPGKGLEWIGEINPDSSTINYTSSLKDKFIISRDNAKNTLYLQMNKVRSEDTALYYCACLITTEDYWGQGTSVTVSS
VL: QIVLTQSPSSMYASLGERVTIPCKASQDINSYLSWFQQKPGKSPKTLIYYANRLVDGVPSRFSGSGSGQDYSLTISSLEYEDMGIYYCLQYDEFPYTFGGGTKLEIK
B2: 14E5 antibody (antibody, V domains shown)
VH: EVQLQQSGAELMKPGASVKISCKATGYTFSTYWIEWIKQRPGHGLEWIGHILPGSVITNYNEKFKGKAAITADTSSNTSYMQLSSLTSEDSAVYYCARWGWDSYWGQGTLVTVSS
VL: DIEMTQSPSSLSASLGDRVTISCSTSQDISSSLNWYQQKPDGTVTLLIYYTSNLHSGVPSRFSGSGSGTDYSLTISNLEPEDIATYYCQQYSKLPYTFGGGTKLEIKR
notes: Mouse hybridoma antibody; also called hybridoma clone 14E5
B3: 11E8 antibody (antibody, V domains shown)
VH: EVQLQQSGPELMKTGASVKISCKATGYTFSSYWIEWVKQRPGHGLEWIGDILPGSGTTNYNEKFKGRATVTADRSSNTAYMQLSSLTYGDSAVYYCATWGWDTYWDQGTSVTVSS
VL: B2 VL with E3V, T25A, D28G, S31N, S32Y, T45K, N53S, K93N
notes: Mouse hybridoma antibody

biological target: T1, human integrin β8 swap construct RKMALF …; assay: cell staining of β8 amino acid swap constructs (175-180)

Compared with B1, B2 is higher in “% positive” value: 131% for the first, 150% for the second.

With B3 the “% positive” value was 125%.

biological target: T2, human integrin β8 swap construct KKMAFY …; assay: as above

Compared with B1, B2 is higher in “% positive” value: 3% for the first, 6% for the second.

B3 was tested, and the “% positive” value was 31%.

biological target: T3, human integrin β8 swap construct KKMAFF …; assay: as above

Compared with B1, B2 is lower in “% positive” value: 116% for the first, 9% for the second.

In the case of B3, the “% positive” value is reported as 115%.

biological target: T4, human integrin β8 swap construct RKMAFY …; assay: as above

Compared with B1, B2 is lower in “% positive” value: 89% for the first, 6% for the second.

In the case of B3, the “% positive” value is reported as 108%.
